Reference: US20250295687A1, “TREM COMPOSITIONS AND METHODS OF USE FOR TREATING PROLIFERATIVE DISORDERS” (Flagship Pioneering Innovations VI, LLC, priority 2022, published 2025)

Assays:
[1] = system: nonsense mutation in TP53 (R196X; Arg→TGA) in Calu-6 lung carcinoma cells; test: Western blot of full-length p53 after PTC readthrough in Calu-6 cells (Example 6); type: cell-based; conditions: for PTC suppression / production of full-length p53 protein: 48 hours, Western blotting (FIGS. 1-3)
Description: Calu-6 is a lung cancer cell line known to harbor a nonsense mutation in TP53 (R196X; Arg→TGA) that results in a premature termination codon (PTC). To test PTC readthrough of the TREM, cells were treated with Arg-TGA, Ser-TGA, or Ser-TAG TREMs or with known translational read-through inducing drugs (RIDs).
(§1) To monitor the ability of the TREMs to readthrough the PTC mutation, the expression of TP53 was assessed by Western blotting 48 hours post-TREM delivery into the cells. Cells were washed once with phosphate buffered saline (PBS) and lysed with 100 uL of RIPA buffer (50 mM Tris, pH 8.0, 150 mM NaCl, 1% Nonidet-P40 (NP-40), 0.5% Deoxycholate, 0.1% sodium dodecyl sulfate (SDS)) supplemented with protease inhibitor, for 30 min at 4° C. The protein extracts were then centrifuged at 21,000 g for 15 min and the supernatant was transferred into clean tubes. Protein concentration was determined using a BCA Protein Assay Kit according to the manufacturer's instructions. 20 μg of total protein were loaded into an SDS-PAGE gel and transferred onto nitrocellulose membranes after electrophoresis. The membranes were probed with anti-p53, anti-p21, and anti-β-tubulin antibodies.

NanoLuc with a TGA PTC = test: In vivo PTC readthrough of NanoLuc TGA reporter by hydrodynamic gene delivery (FIG. 5B); set-up: species or system mouse
Description: Hydrodynamic gene delivery (HGD) is a simple, fast, safe, and effective method for delivering transgenes in rodent models. A set of plasmids expressing both an eGFP-Luc-TGA reporter and a TREM were designed. To evaluate tolerability and determine optimal plasmid concentration for maximum TREM delivery to the liver, the eGFP-WT Luc plasmid was administered to adult CD-1 mice via tail vein hydrodynamic injection at three doses: 10 μg, 30 μg, and 50 μg. […] Next, 50 μg of DNA in saline […] was administered to mice via tail vein hydrodynamic injection to assess target engagement and PTC readthrough using either 1) eGFP-Nluc TGA reporter plasmid (PL-854), or 2) eGFP-Nluc WT reporter (PL1202), or 3) all-in-one plasmid eGFP-Nluc-TGA reporter with S-TAG (PL-1216), or 4) all-in-one plasmid eGFP-Nluc-TGA reporter with R-TGA (PL-1215).

[2] = system: p21 (downstream transcriptional target of p53) in Calu-6 cells; test: Western blot of p21 protein levels in Calu-6 cells (p53 functional rescue); type: cell-based
Description: Calu-6 is a lung cancer cell line known to harbor a nonsense mutation in TP53 (R196X; Arg→TGA) that results in a premature termination codon (PTC). To test PTC readthrough of the TREM, cells were treated with Arg-TGA, Ser-TGA, or Ser-TAG TREMs or with known translational read-through inducing drugs (RIDs). Briefly, 6×10^5 cells were seeded into a 6-well plate and transfected with […] of TREM in 15 uL of RNAiMAX+800 uL OptiMEM; 0.5 or 5 mg/mL G418, an aminoglycoside antibiotic; or Ataluren, a TRID that is approved for the treatment of DMD in Europe at the reported maximally effective dose of 10 uM.
as §1
To determine whether the rescued p53 protein was functional, cellular p21 protein levels were measured (FIG. 4). p21 is a downstream transcriptional target and well-established biomarker of p53 activity.

O=C(O)c1cccc(-c2noc(-c3ccccc3F)n2)c1 [Ataluren, reference compound]
percentage of full-length p53 out of the total p53 protein ([1]; Calu-6 cells treated with 10 μM): about 0%
PTC suppression / production of full-length p53 protein ([1]; Calu-6 cells): ineffective

CN[C@@H]1[C@@H](O)[C@@H](O[C@@H]2[C@@H](O)[C@H](O[C@H]3O[C@H]([C@@H](C)O)[C@@H](O)[C@H](O)[C@H]3N)[C@@H](N)C[C@H]2N)OC[C@]1(C)O [G418, reference compound]
rescue of TP53 mRNA levels / expression of truncated p53 protein ([1]; Calu-6 cells): more effective in rescuing mRNA levels
percentage of full-length p53 out of the total p53 protein ([1]; Calu-6 cells treated with 0.5 mg/mL): about 30%
percentage of full-length p53 out of the total p53 protein ([1]; Calu-6 cells treated with 5 mg/mL): about 30%
PTC suppression / production of full-length p53 protein ([1]; Calu-6 cells): marginally increased

B1: Arg-TGA: arginine non-cognate TREM: sequence of ARG-UCU-TREM body but with anticodon UCA instead of UCU (nucleic acid)
chain: GGCUCCGUGGCGCAAUGGAUAGCGCAUUGGACUUCAAAUUCAAAGGUUCCGGGUUCGAGUCCCGGCGGAGUCGCCA
modifications: listed as RNA, chemistry not fully specified
increase in luciferase signal compared to controls (NanoLuc with a TGA PTC; mice, 50 μg of DNA in saline, tail vein hydrodynamic injection, all-in-one plasmid eGFP-Nluc-TGA reporter (FIG. 5B)): ~1000 fold
total flux signal in the liver (NanoLuc with a TGA PTC; mouse, hydrodynamic delivery of plasmid (FIG. 5B)): about 2×10^9 p/s
percentage of full-length p53 of the total p53 protein ([1]; Calu-6 cells treated with 100 nM): about 95%
full-length p53 levels increase relative to cells treated with SEQ ID NO:623 ([1]; Calu-6 cells, 100 nM TREM, vs 100 nM SEQ ID NO:623): about 55 fold
full-length p53 levels increase relative to cells treated with SEQ ID NO:625 ([1]; Calu-6 cells, 100 nM TREM, vs 100 nM SEQ ID NO:625): about 11 fold
full-length p53 levels increase relative to cells treated with Ataluren ([1]; Calu-6 cells, 100 nM TREM, vs 10 μM Ataluren): about 55 fold
full-length p53 levels increase relative to cells treated with 0.5 mg/mL G418 ([1]; Calu-6 cells, 100 nM TREM, vs 0.5 mg/mL G418): about 55 fold
full-length p53 levels increase relative to cells treated with 5 mg/mL G418 ([1]; Calu-6 cells, 100 nM TREM, vs 5 mg/mL G418): about 14 fold
full-length p53 levels increase relative to mock-transfected cells ([1]; Calu-6 cells, 100 nM TREM, vs mock-transfected cells): about 55 fold
full-length p53 levels increase relative to untreated cells ([1]; Calu-6 cells, 100 nM TREM, vs untreated cells): about 55 fold
total p53 that was full length (FIG. 3) ([1]; Calu-6 cells, 48 hours post-TREM delivery, Western blotting): about 90%
PTC suppression / production of full-length p53 protein ([1]; Calu-6 cells): robustly induce PTC suppression
p21 levels increase relative to cells treated with SEQ ID NO:623 ([2]; 100 nM TREM, vs 100 nM SEQ ID NO:623): about 60 fold
p21 levels increase relative to cells treated with SEQ ID NO:625 ([2]; 100 nM TREM, vs 100 nM SEQ ID NO:625): about 30 fold
p21 levels increase relative to cells treated with Ataluren ([2]; 100 nM TREM, vs 10 μM Ataluren): about 60 fold
p21 levels increase relative to cells treated with 0.5 mg/mL G418 ([2]; 100 nM TREM, vs 0.5 mg/mL G418): about 60 fold
p21 levels increase relative to cells treated with 5 mg/mL G418 ([2]; 100 nM TREM, vs 5 mg/mL G418): about 60 fold
p21 levels increase relative to mock-transfected cells ([2]; 100 nM TREM, vs mock-transfected cells): about 60 fold
p21 levels increase relative to untreated cells ([2]; 100 nM TREM, vs untreated cells): about 60 fold
rescue of cellular p21 protein levels (FIG. 4) ([2]; Western blotting): able to rescue p21 protein levels
